Holding throughout (format): cell-based
One test concerns the target T1, GβGγ dimer (Homo sapiens, UniProt P59768+P62873).
T1 construct: expressed in transfected cells; host or cells: HEK293
Briefly: Polarization microscopy of probe in HEK293 cells, with or without cotransfected GβGγ dimer. The conditions noted are these: cotransfection of plasmids encoding the, excitation polarization resolved single-photon confocal microscopy. On the procedure:
(§1) Prior to microscopy observations, mammalian cells (HEK293) were cultured at 37° C. under an atmosphere of 95% air, 5% CO2, in Dulbecco's modified Eagle's medium with Glutamax I and high glucose (Life Technologies), supplemented with 10% fetal bovine serum. Cells were plated on 8-chamber microscopy slides (p-Slides, Ibidi GmbH, Germany). Transfections were carried out using 0.2 μg of plasmid DNA and Lipofectamine 2000 (Life Technologies), according to the protocol of the manufacturer. In cotransfections, 0.2 μg of each of the plasmids were used. Microscopy experiments were carried out 48 h after transfection. […]
(§2) In excitation polarization resolved single-photon laser scanning confocal microscopy, the cells (in the multi-well cover slip) were observed using a single-photon laser scanning confocal microscope Olympus FV1200, modified for excitation-polarization resolved microscopy. […] Fluorescence of wavelengths in the range of 510-610 nm was separated from the excitation light by a long-pass dichroic mirror (DM405/488, Olympus, Japan), diffractive grating, and an adjustable slit, and detected by a photomultiplier. […]
(§3) The resulting images were deconvolved and quantitatively analyzed by following published procedures (Bondar A & al., Communications Biology. 2021 Feb. 12; 4(1):1-2.) that rely on publicly available software tools. […]

Test [1] concerns the target T2, activated form of the insulin receptor 1 (Homo sapiens, UniProt P06213).
T2 construct: His tag (named His6); expressed in transfected cells; host or cells: HEK293
In words: Polarization microscopy of probe in HEK293 cells, insulin receptor 1 activated by serum insulin. The note with it: cotransfection of insulin receptor 1 plasmid, activated by 5% fetal bovine serum containing natural levels of insulin, excitation polarization resolved single-photon confocal microscopy. How it is done: as §1, §2, §3

In test [2] the target is T3, activated form of the G-protein Gαi1 (Gαi1(Q204L)) (Homo sapiens, UniProt P63096, Q204L).
T3 construct: expressed in transfected cells; host or cells: HEK293
T3 sequence (P63096 whole entry Q204L): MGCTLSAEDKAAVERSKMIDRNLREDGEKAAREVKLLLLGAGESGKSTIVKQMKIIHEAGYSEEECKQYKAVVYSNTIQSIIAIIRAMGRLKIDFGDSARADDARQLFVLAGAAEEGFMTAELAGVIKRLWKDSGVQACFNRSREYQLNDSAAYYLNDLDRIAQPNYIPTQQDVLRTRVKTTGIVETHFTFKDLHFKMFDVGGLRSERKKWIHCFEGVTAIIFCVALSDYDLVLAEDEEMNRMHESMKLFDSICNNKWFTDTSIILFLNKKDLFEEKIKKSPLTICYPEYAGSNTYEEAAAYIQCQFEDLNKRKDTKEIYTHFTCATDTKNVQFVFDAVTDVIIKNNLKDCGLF
Briefly: Polarization microscopy of probe in HEK293 cells, with or without cotransfected constitutively activated Gαi1(Q204L). The note with it: cotransfection of Gαi1(Q204L) plasmid. From the text:
A protein (SEQ ID NO:5) that includes as an anchoring moiety a fragment of the protein h-Ras, a flexible peptide linker (amino acid sequence GSGGSGG (SEQ ID NO:1)), a monomeric enhanced green fluorescent protein (meGFP) as a fluorescent moiety, and an affinity binding peptide KB1753 known to bind the activated form of the G-protein Gαi1 (Johnston C A & al., Structure. 2005 Jul. 1; 13(7):1069-80), was encoded into a DNA sequence (SEQ ID NO:6) and cloned into a mammalian expression vector (pcDNA3.1(+)) under the control of the cytomegalovirus (CMV) promoter. The resulting DNA encoding the probe of invention was transfected into HEK293 cells either alone, or along with DNA encoding the target protein of the probe.
Prior to microscopy observations, mammalian cells (HEK293) were cultured at 37° C. under an atmosphere of 95% air, 5% CO2, in Dulbecco's modified Eagle's medium with Glutamax I and high glucose (Life Technologies), supplemented with 10% fetal bovine serum. Cells were plated on 8-chamber microscopy slides (p-Slides, Ibidi GmbH, Germany). Transfections were carried out using 0.2 μg of plasmid DNA and Lipofectamine 2000 (Life Technologies), according to the protocol of the manufacturer. In cotransfections, 0.2 μg of each of the plasmids were used. Microscopy experiments were carried out 48 h after transfection. Microscopy observations were performed at 37° C., maintained by a heated chamber (iBidi Heating System, iBidi).
The cells were observed by excitation polarization resolved single-photon laser scanning confocal microscopy, by excitation polarization resolved two-photon laser scanning microscopy, by excitation polarization resolved single-photon wide-field fluorescence microscopy, and by fluorescence polarization resolved single-photon laser scanning confocal microscopy.
In excitation polarization resolved single-photon laser scanning confocal microscopy, the cells (in the multi-well cover slip) were observed using a single-photon laser scanning confocal microscope Olympus FV1200, modified for excitation-polarization resolved microscopy. Specifically, the excitation laser beam was passed through an electrooptical polarization modulator (RPM-2P, Innovative Bioimaging, USA) synchronized with the function of the microscope so that the direction of polarization of the laser light was alternated between horizontal and vertical direction (within the image) between acquisition of individual pixels of the image. In order to observe the probes of invention containing the green fluorescent protein (GFP), 488 nm wavelength was used for excitation. Fluorescence of wavelengths in the range of 510-610 nm was separated from the excitation light by a long-pass dichroic mirror (DM405/488, Olympus, Japan), diffractive grating, and an adjustable slit, and detected by a photomultiplier. The samples were imaged by a 40× water immersion lens (UApoN340, NA1.15. Olympus, Japan).
The resulting images were deconvolved and quantitatively analyzed by following published procedures (Bondar A & al., Communications Biology. 2021 Feb. 12; 4(1):1-2.) that rely on publicly available software tools. Briefly, an acquired image, containing in different pixels information on fluorescence intensity excited with distinct polarizations of excitation light was deconvolved into two images, each containing fluorescence intensity excited by one polarization of the excitation light. After background subtraction, an image was generated to show, in each pixel, the base 2 logarithm of the ratio between the values of the corresponding pixels of the images containing information on fluorescence intensity excited with a horizontal and vertical polarization of excitation light. The resulting image was segmented to identify parts that correspond to the cell membrane. […]

For test [3], the target named is T4, activated form of the μ-opioid receptor (Homo sapiens, UniProt P35372).
T4 construct: expressed in transfected cells; host or cells: HEK293
T4 sequence (P35372 whole entry): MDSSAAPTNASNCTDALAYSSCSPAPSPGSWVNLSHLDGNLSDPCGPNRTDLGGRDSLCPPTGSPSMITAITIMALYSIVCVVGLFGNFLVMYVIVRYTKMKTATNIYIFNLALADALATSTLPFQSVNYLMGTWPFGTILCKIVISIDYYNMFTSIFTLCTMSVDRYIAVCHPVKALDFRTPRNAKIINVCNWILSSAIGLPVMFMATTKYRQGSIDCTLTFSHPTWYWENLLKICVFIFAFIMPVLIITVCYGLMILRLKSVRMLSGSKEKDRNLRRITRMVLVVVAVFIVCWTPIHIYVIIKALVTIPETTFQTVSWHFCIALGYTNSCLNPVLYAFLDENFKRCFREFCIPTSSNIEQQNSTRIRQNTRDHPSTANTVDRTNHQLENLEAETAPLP
In words: Polarization microscopy of probe in HEK293 cells, μ-opioid receptor activated by DAMGO. The conditions noted are these: cotransfection of μ-opioid receptor plasmid and 10 μM DAMGO, excitation polarization resolved single-photon confocal microscopy. On the procedure:
as §1, §2, §3

Test [4] concerns the target T5, activated form of the G-protein Gα13 (Gα13(Q226L)) (Homo sapiens, UniProt Q14344, Q226L).
T5 construct: expressed in transfected cells; host or cells: HEK293
T5 sequence (Q14344 1-377 Q226L): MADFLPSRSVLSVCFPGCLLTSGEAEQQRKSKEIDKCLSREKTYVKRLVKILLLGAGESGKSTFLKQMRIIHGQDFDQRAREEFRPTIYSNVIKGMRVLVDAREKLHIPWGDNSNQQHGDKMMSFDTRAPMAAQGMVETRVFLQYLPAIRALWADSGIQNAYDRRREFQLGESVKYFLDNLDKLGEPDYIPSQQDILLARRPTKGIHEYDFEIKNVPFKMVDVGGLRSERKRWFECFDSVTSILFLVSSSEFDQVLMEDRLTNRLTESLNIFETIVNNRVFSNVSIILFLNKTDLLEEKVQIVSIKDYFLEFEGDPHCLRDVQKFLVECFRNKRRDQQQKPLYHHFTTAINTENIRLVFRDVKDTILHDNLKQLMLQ
In words: Polarization microscopy of probe in HEK293 cells, with or without cotransfected Gα13(Q226L). The note with it: cotransfection of Gα13(Q226L) plasmid, excitation polarization resolved single-photon confocal microscopy. How it is done:
as §1, §2, §3

Test [5] has as its target T6, activated form of the small GTPase Rac1 (Rac1(Q61L)) (Homo sapiens, UniProt P63000, Q61L).
T6 construct: expressed in transfected cells; host or cells: HEK293
Briefly: Polarization microscopy of probe in HEK293 cells, with or without cotransfected Rac1(Q61L). The conditions noted are these: cotransfection of Rac1(Q61L) plasmid, excitation polarization resolved single-photon confocal microscopy. How it is done: as §1, §2, §3

The target in another test is T7, activated form of Gαi1 (Homo sapiens, UniProt P63096).
T7 construct: expressed in transfected cells; host or cells: HEK293
T7 sequence (P63096 whole entry): as the sequence (P63096 whole entry Q204L) above, with L204Q counted along it
Briefly: Polarization microscopy of probe in HEK293 cells, Gαi1 activated through the α2-adrenergic receptor by norepinephrine. The conditions noted are these: HEK293 cells cotransfected with Gαi1, Gβ1, Gγ2 and α2-adrenergic receptor; 10 μM norepinephrine; excitation polarization resolved single-photon confocal microscopy. On the procedure:
as §1, §2, §3

The target of test [6] is T8, activated form of the β2-adrenergic receptor (Homo sapiens, UniProt P07550, E27Q/G16R).
T8 construct: expressed in transfected cells; host or cells: HEK293
Briefly: Polarization microscopy of probe in HEK293 cells, β2-adrenergic receptor activated by norepinephrine. The conditions noted are these: cotransfection of β2-adrenergic receptor plasmid and 10 μM norepinephrine, excitation polarization resolved single-photon confocal microscopy. On the procedure: as §1, §2, §3

Test [7] addresses T9, activated form of the small GTPase RhoA (RhoA(Q63L)) (Homo sapiens, UniProt P61586, Q63L).
T9 construct: expressed in transfected cells; host or cells: HEK293
Briefly: Polarization microscopy of probe in HEK293 cells, with or without cotransfected RhoA(Q63L). The note with it: cotransfection of RhoA(Q63L) plasmid, excitation polarization resolved single-photon confocal microscopy. How it is done:
as §1, §2, §3

Test [8] concerns activated form of the β2-adrenergic receptor. In words: Polarization microscopy of probe in HEK293 cells, β2-adrenergic receptor activated by norepinephrine. The conditions noted are these: β2-adrenergic receptor is the probe's anchoring moiety, 10 uM norepinephrine, excitation polarization resolved single-photon confocal microscopy. How it is done:
as §1, §2, §3

Where [9] appears, read: excitation polarization resolved single-photon laser scanning confocal microscopy.

T1 sequence (P62873 2-340 limits assumed): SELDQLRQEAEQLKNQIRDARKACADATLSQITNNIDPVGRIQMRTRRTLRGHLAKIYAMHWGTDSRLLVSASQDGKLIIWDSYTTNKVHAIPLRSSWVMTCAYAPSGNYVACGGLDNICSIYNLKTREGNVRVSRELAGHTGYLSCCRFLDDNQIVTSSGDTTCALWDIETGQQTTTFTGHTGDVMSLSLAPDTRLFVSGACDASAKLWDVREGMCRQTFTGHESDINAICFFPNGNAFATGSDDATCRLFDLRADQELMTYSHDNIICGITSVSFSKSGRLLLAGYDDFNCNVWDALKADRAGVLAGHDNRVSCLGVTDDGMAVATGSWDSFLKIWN
T1 sequence (P59768 2-68 limits assumed): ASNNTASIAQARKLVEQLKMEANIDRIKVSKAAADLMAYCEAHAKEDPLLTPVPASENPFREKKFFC
T9 sequence (P61586 whole entry Q63L): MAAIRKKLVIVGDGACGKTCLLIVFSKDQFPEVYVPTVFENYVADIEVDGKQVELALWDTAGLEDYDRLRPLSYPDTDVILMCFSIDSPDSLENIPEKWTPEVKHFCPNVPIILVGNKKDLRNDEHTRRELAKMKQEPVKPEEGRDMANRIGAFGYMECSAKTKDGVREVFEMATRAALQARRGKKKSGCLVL
T2 sequence (P06213 with tags, fused parts or gaps isoform P06213-2): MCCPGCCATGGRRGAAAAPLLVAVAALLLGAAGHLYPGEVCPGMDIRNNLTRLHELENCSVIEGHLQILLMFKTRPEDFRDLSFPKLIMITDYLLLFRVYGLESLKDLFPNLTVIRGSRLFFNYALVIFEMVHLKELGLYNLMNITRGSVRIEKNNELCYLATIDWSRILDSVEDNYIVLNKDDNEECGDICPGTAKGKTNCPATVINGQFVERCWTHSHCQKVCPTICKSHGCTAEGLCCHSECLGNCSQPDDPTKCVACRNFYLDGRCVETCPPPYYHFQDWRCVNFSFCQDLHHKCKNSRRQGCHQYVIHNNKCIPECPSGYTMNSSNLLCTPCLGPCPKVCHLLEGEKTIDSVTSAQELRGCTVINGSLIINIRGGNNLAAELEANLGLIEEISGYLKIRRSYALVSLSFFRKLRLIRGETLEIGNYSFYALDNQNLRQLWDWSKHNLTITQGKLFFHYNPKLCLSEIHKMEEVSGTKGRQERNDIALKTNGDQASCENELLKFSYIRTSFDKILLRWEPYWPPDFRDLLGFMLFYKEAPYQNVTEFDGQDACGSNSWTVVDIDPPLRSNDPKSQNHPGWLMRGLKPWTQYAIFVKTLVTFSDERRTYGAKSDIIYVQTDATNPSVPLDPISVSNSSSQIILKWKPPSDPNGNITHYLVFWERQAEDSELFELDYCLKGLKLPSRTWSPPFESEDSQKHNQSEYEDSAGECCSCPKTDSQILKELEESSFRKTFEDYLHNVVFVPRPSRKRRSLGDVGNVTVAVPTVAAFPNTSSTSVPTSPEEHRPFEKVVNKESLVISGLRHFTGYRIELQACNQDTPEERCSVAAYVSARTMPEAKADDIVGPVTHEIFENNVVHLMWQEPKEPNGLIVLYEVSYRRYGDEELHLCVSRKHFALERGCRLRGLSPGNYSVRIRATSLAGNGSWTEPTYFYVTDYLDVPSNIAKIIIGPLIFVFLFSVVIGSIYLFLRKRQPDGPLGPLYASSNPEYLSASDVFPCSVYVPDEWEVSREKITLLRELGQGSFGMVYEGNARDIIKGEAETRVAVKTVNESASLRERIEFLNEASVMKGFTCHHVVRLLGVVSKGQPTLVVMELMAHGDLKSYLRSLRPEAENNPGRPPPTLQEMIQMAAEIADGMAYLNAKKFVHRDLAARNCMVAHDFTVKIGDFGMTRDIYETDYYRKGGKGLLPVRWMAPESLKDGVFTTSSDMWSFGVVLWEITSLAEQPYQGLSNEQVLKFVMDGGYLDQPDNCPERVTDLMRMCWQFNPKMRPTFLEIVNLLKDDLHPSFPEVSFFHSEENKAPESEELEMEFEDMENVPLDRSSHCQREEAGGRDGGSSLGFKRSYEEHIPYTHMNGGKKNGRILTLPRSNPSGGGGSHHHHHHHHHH

As for “GAP43-SSGSSGTG-meGFP-GRK2ct [Example 17]”, the “linear dichroism of the fluorescent moiety of the probe in presence of its target molecule compared with absence” value with GβGγ dimer is “statistically significantly lower”.

Consider GAP43-SSGSSGTG-meGFP-IRS1 [Example 22], for which the “linear dichroism of the fluorescent moiety of the probe in presence of its target molecule compared with absence” value in [1] was “statistically significantly lower”. Regarding GAP43-SSGSSGTG-meGFP-KB1753 [Example 4], the “linear dichroism of the fluorescent moiety of the probe in presence of its target molecule compared with absence” value in test [2] (setting [9]) is listed as “statistically significantly higher”. Take GAP43-SSGSSGTG-meGFP-NB33 [Example 16]: in [3], the “linear dichroism of the fluorescent moiety of the probe in presence of its target molecule compared with absence” value was “statistically significantly lower”. For GAP43-SSGSSGTG-meGFP-PRGrh [Example 19], the “linear dichroism of the fluorescent moiety of the probe in presence of its target molecule compared with absence” value in [4] is listed as “statistically significantly lower”. As for “GAP43-SSGSSGTG-meGFP-Δ6-PAK1 [Example 21]”, in test [5], the “linear dichroism of the fluorescent moiety of the probe in presence of its target molecule compared with absence” value is “statistically significantly lower”. As for IL4R-SSGSSGTG-meGFP-KB1753 [Example 5], the “linear dichroism of the fluorescent moiety of the probe in presence of its target molecule compared with absence” value in test [2] (setting [9]) is reported as “statistically significantly higher”.

For “KB1753-cpmTurquoise2-GSGGSGG-hRas [Example 9]”, the “linear dichroism of the fluorescent moiety of the probe in presence of its target molecule compared with absence” value in test [2] (setting [9]) was “statistically significantly higher”. On the same count and under the same terms, the same measure for KB1753-meGFP-GS24-hRas [Example 6]: “statistically significantly higher”.

Turning to KB1753-meGFP-GSGGSGG-hRas [Example 1], the “linear dichroism of the fluorescent moiety of the probe in presence of activated Gαi1 compared with absence” value in the test with activated form of Gαi1 was “statistically significantly higher”. Besides, the “linear dichroism of the fluorescent moiety of the probe in presence of its target molecule compared with absence” value in test [2] (excitation polarization resolved single-photon confocal, two-photon and wide-field microscopy, FIG. 2A) is recorded as “statistically significantly higher”. The “fluorescence polarization of the fluorescent moiety of the probe in presence of its target molecule compared with absence” value in test [2] (fluorescence polarization resolved single-photon laser scanning confocal microscopy, FIG. 2A) is recorded as “statistically significantly higher”. For KB1753-meGFP-GSGGSGG-kRas [Example 3], the “linear dichroism of the fluorescent moiety of the probe in presence of its target molecule compared with absence” value in [2] (setting [9]) is listed as “statistically significantly higher”. Consider NB33-meGFP-GSGGSGG-hRas [Example 15], for which the “linear dichroism of the fluorescent moiety of the probe in presence of its target molecule compared with absence” value in test [3] was “statistically significantly lower”.

Consider NB80-meGFP-GSGGSGG-hRas [Example 13], for which, in test [6], the “linear dichroism of the fluorescent moiety of the probe in presence of its target molecule compared with absence” value is on record as “statistically significantly lower”.

As for “rhotekin-meGFP-GSGGSGG-hRas [Example 20]”, the “linear dichroism of the fluorescent moiety of the probe in presence of its target molecule compared with absence” value in test [7] is recorded as “statistically significantly higher”. On to β2AR-SSGSSGTG-meGFP-NB80 [Example 14], for which the “linear dichroism of the fluorescent moiety of the probe in presence of its target molecule compared with absence” value in test [8] is reported as “statistically significantly higher”.

The values above are taken from patent publication US12618828B2, “Probe and method for detecting membrane-associated molecules in living cells” (priority 2021, dated 2026).
